The text below walks through data of article PMC3913652 (PLoS ONE, 2014).

In this assay the target is T1, [Leu^14]exenatide-ABD (leucine substituted for methionine at position 14 (stands in the printed …, C-terminus -OH (Table 1))).
T1 construct: numbers count on: the exenatide peptide; Gly-Gly-Ser tri-peptide linker; 88 residue peptide; also called ABD fused exenatide; source: synthetic peptide (solid phase, reverse-phase HPLC)
The experiment in a line: SPR; BioRad ProteOn XPR36, GLC sensor chip, 25°C; albumins amine-coupled (2000-5000 RU), peptides flowed over at 3 concentrations in duplicate; 10 mM HEPES pH 7.4, 150 mM NaCl, 3 mM EDTA, 0.005% Tween-20, 0.2 mg/ml ovalbumin; highest concentration dissociated for 3 hours; 1:1 (Langmuir) model with correction for mass transfer. Particulars: both partners purified. (SPR reads the build-up and loss of mass on a sensor chip optically.)

B1: monkey albumin (natural protein, UniProt A2V9Z4 25-608, looked up)
chain: DTHKSEVAHRFKDLGEEHFKGLVLVAFSQYLQQCPFEEHVKLVNEVTEFAKTCVADESAENCDKSLHTLFGDKLCTVATLRETYGEMADCCAKQEPERNECFLQHKDDNPNLPPLVRPEVDVMCTAFHDNEATFLKKYLYEVARRHPYFYAPELLFFAARYKAAFAECCQAADKAACLLPKLDELRDEGKASSAKQRLKCASLQKFGDRAFKAWAVARLSQKFPKAEFAEVSKLVTDLTKVHTECCHGDLLECADDRADLAKYMCENQDSISSKLKECCDKPLLEKSHCLAEVENDEMPADLPSLAADYVESKDVCKNYAEAKDVFLGMFLYEYARRHPDYSVMLLLRLAKAYEATLEKCCAAADPHECYAKVFDEFQPLVEEPQNLVKQNCELFEQLGEYKFQNALLVRYTKKVPQVSTPTLVEVSRNLGKVGAKCCKLPEAKRMPCAEDYLSVVLNRLCVLHEKTPVSEKVTKCCTESLVNRRPCFSALELDEAYVPKAFNAETFTFHADMCTLSEKEKQVKKQTALVELVKHKPKATKEQLKGVMDNFAAFVEKCCKADDKEACFAEEGPKFVAASQAALA
As usually defined, the Kd is the constant that tells how readily two partners part at equilibrium. For the molecule B1, the Kd was 0.0402 nM.

B2: dog albumin (natural protein, UniProt P49822 25-608, looked up)
chain: EAYKSEIAHRYNDLGEEHFRGLVLVAFSQYLQQCPFEDHVKLAKEVTEFAKACAAEESGANCDKSLHTLFGDKLCTVASLRDKYGDMADCCEKQEPDRNECFLAHKDDNPGFPPLVAPEPDALCAAFQDNEQLFLGKYLYEIARRHPYFYAPELLYYAQQYKGVFAECCQAADKAACLGPKIEALREKVLLSSAKERFKCASLQKFGDRAFKAWSVARLSQRFPKADFAEISKVVTDLTKVHKECCHGDLLECADDRADLAKYMCENQDSISTKLKECCDKPVLEKSQCLAEVERDELPGDLPSLAADFVEDKEVCKNYQEAKDVFLGTFLYEYARRHPEYSVSLLLRLAKEYEATLEKCCATDDPPTCYAKVLDEFKPLVDEPQNLVKTNCELFEKLGEYGFQNALLVRYTKKAPQVSTPTLVEVSRKLGKVGTKCCKKPESERMSCAEDFLSVVLNRLCVLHEKTPVSERVTKCCSESLVNRRPCFSGLEVDETYVPKEFNAETFTFHADLCTLPEAEKQVKKQTALVELLKHKPKATDEQLKTVMGDFGAFVEKCCAAENKEGCFSEEGPKLVAAAQAALV
As for B2, the Kd came to 0.0981 nM.

B3: rat albumin (natural protein, UniProt P02770 25-608, looked up)
chain: EAHKSEIAHRFKDLGEQHFKGLVLIAFSQYLQKCPYEEHIKLVQEVTDFAKTCVADENAENCDKSIHTLFGDKLCAIPKLRDNYGELADCCAKQEPERNECFLQHKDDNPNLPPFQRPEAEAMCTSFQENPTSFLGHYLHEVARRHPYFYAPELLYYAEKYNEVLTQCCTESDKAACLTPKLDAVKEKALVAAVRQRMKCSSMQRFGERAFKAWAVARMSQRFPNAEFAEITKLATDVTKINKECCHGDLLECADDRAELAKYMCENQATISSKLQACCDKPVLQKSQCLAEIEHDNIPADLPSIAADFVEDKEVCKNYAEAKDVFLGTFLYEYSRRHPDYSVSLLLRLAKKYEATLEKCCAEGDPPACYGTVLAEFQPLVEEPKNLVKTNCELYEKLGEYGFQNAVLVRYTQKAPQVSTPTLVEAARNLGRVGTKCCTLPEAQRLPCVEDYLSAILNRLCVLHEKTPVSEKVTKCCSGSLVERRPCFSALTVDETYVPKEFKAETFTFHSDICTLPDKEKQIKKQTALAELVKHKPKATEDQLKTVMGDFAQFVDKCCKAADKDNCFATEGPNLVARSKEALA
Turning to B3, the Kd is 0.0082 nM.
